Laboratory results published in patent US20240050583A1, “PROTEIN-DRUG CONJUGATE AND SITE-SPECIFIC CONJUGATING METHOD” (HARBOUR BIOMED (SHANGHAI) CO., LTD, priority 2020, published 2024).

Legend:
[1] = target: T1, CHOK1-hCD47 cells highly expressing human CD47 (Homo sapiens, UniProt Q08722); assay: FACS binding to cells highly expressing CD47; conditions: flow cytometry FACS
T1 construct: host or cells: CHOK1-hCD47 (CHO-K1)
Experimental: The binding ability of the antigen-binding protein to CHOK1-hCD47 cells (GenScript, M00581) highly expressing human CD47 was determined by flow cytometry FACS. Specifically, the cells were digested and resuspended in a DMEM complete medium, and the cell density was adjusted to 1×10^6 cells/mL. The cells were seeded in a 96-well V-bottom plate (Corning, #3894) at 100 µL/well, followed by the addition of test binding proteins diluted in a 3-fold gradient at a concentration that was 2 times the final concentration, each at 100 μL/well. The cells were incubated at 4° C. for 1 h away from light. Thereafter, the cells in each well were rinsed twice with 100 μL of pre-cooled PBS, and centrifuged at 500 g at 4° C. for 5 min, and then the supernatant was discarded. Thereafter, a fluorescent secondary antibody (Alexa Fluor 488-conjugated AffiniPure Goat Anti-Human IgG, Fcγ Fragment Specific, Jackson ImmunoResearch Inc., #109-545-098, diluted in a 1:500 ratio) was added at 100 μL/well, and the plate was incubated at 4° C. for 30 min away from light. The cells in each well were then rinsed twice with 100 μL of pre-cooled PBS and centrifuged at 500 g at 4° C. for 5 min, and then the supernatant was discarded. […] Fluorescence signal values were read using a BD FACS CANTOII flow cytometer, and the data were processed and analyzed using FlowJo v10 (FlowJo, LLC) software.

[2] = Molecular weight and coupling product components (DAR) by LC-MS; conditions: coupling product without HIC purification, protein 4.1 mg/mL
From the text: In this example, liquid chromatography-mass spectrometry (LC-MS) was used to analyze the protein sample for molecular weight. Those skilled in the art can use different models of liquid chromatography (LC) and mass spectrometer (MS) to establish similar analytical methods according to the technical instructions and through experimental exploration. Only representative methods are listed in this example.
In certain specific embodiments, determination of the molecular weight of a protein sample required desaccharification on the sample to remove modifications such as saccharide chains, for example, the sample was processed with glycosidase PNGase F (NEB, #P0705L) at 37° C. for at least 4 h. For example, in all examples of the present invention, when the molecular weight of protein samples was determined, unless otherwise emphasized, the protein samples to be tested were subjected to desaccharification by the glycosidase PNGase F.
In certain specific embodiments, determination of the reduced molecular weight of a protein sample required reduction on the sample, for example, the sample was processed with […] dithiothreitol (DTT) at 37° C. for 10 min. For example, in all examples of the present invention, the samples after reduction were called reduced samples, and the samples without reduction were called non-reduced samples.
Buffer A was 0.1% formic acid FA dissolved in water, and buffer B was 0.1% formic acid FA dissolved in acetonitrile. Injection: about 1 μg; flow rate: 0.3 mL/min; and operation temperature: 80° C. When reduced samples were tested, buffer A and buffer B were mixed within 12 min to form a linear gradient: using 10-60% B for the first 8 min and 80% B for the last 4 min. When non-reduced samples were tested, buffer A and buffer B were mixed within 9 min to form a linear gradient: using 15-60% B for the first 6 min and 80% B for the last 3 min.
Buffer A was 0.1% formic acid FA dissolved in water, and buffer B was 0.1% formic acid FA dissolved in acetonitrile. Injection: about 10 μL; flow rate: 0.2-0.5 mL/min; and operation temperature: 80° C. […]

NCI-H929 cells [3] = assay: Cytotoxic killing experiment (Example 7.5), NCI-H929; assay type: cell-based, human; conditions: 72 h, CellTiter-Glo; PR001046-ADC at 0.1 μg/mL and above; PR001046 0.01-1 μg/mL; mc-vc-PAB-MMAE 0.1-10 nM
From the text: The data were processed and analyzed by plotting using a GraphPad Prism 8 software. In this example, multiple groups of different PR001046-ADC samples were used, including samples containing different percentages of DAR=2 (D2) components before or after purification.

HCC1954 cells = assay: Cytotoxic killing experiment (Example 8.5), HCC1954; conditions: 72 h, CellTiter-Glo; proteins up to 30 nM, mc-vc-PAB-MMAE up to 60 nM
Experimental: This example was to study the cell killing activity of the anti-5T4 antibody coupling product PR004432-ADC against a human breast cancer cell strain HCC1954 (ATCC, CRL-2338) highly expressing human 5T4.
The HCC1954 cells were seeded in a 96-well plate (Perkin Elmer, #6005225) at 4000 cells/50 μL/well and incubated overnight at 37° C. with 5% CO2. Then, a test sample serially pre-diluted was added at 50 μL/well. PR004432, PR004432-ADC and PR004433-ADC were diluted at a 3-fold concentration gradient from the highest final concentration of 30 nM, and mc-vc-PAB-MMAE was diluted at a 3-fold concentration gradient from the highest final concentration of 60 nM. In addition, a well without the test sample was set as a control well. Thereafter, the plates were incubated at 37° C. with 5% CO2 for 72 h, a CellTiter-Glo cell viability detection reagent (Promega, #G7573) was added, then the plates were incubated at room temperature for at least 10 min to obtain stable luminescence signals, and the luminescence values were detected using a microplate reader. The cell viability was calculated based on the luminescence values by the following formula:
Cell viability (%)=(A/B)×100% […]
(§1) The data were processed and analyzed by plotting using GraphPad Prism 8 software, and binding curves of the antibodies to target cells, EC50 values and other parameters were obtained through four-parameter nonlinear fitting.

HEK293T-hBCMA cells = assay: Cytotoxic killing experiment (Example 9.5), HEK293T-hBCMA; conditions: 72 h, CellTiter-Glo; proteins up to 10 nM, mc-vc-PAB-MMAE up to 20 nM
Experimental: (§2) The HEK293T-hBCMA, NCI-H929, HEK293T and SNU-16 cells were seeded in 96-well plates (Perkin Elmer, #6005225) respectively, with the following seeded cell number: 2500 cells/50 μL/well (HEK293T-hBCMA), 5000 cells/50 μL/well (NCI-H929), 2500 cells/50 μL/well (HEK293T), and 5000 cells/50 μL/well (SNU-16). Then, the plates were incubated overnight at 37° C. with 5% CO2. Then, a test sample serially pre-diluted was added at 50 μL/well. PR004433, PR004433-ADC and PR004432-ADC were diluted at a 3-fold concentration gradient from the highest final concentration of 10 nM, and mc-vc-PAB-MMAE was diluted at a 3-fold concentration gradient from the highest final concentration of 20 nM. In addition, a well without the test sample was set as a control well. Thereafter, the plates were incubated at 37° C. with 5% CO2 for 72 h, a CellTiter-Glo cell viability detection reagent (Promega, #G7573) was added, then the plates were incubated at room temperature for at least 10 min to obtain stable luminescence signals, and the luminescence values were detected using a microplate reader. The cell viability was calculated based on the luminescence values by the following formula: […]
as §1

NCI-H929 cells [4] = assay: Cytotoxic killing experiment (Example 9.5), NCI-H929; conditions: 72 h, CellTiter-Glo; proteins up to 10 nM, mc-vc-PAB-MMAE up to 20 nM
Experimental: as §2
The data were processed and analyzed by plotting using GraphPad Prism 8 software, and binding curves of the antibodies to target cells, EC50 values and other parameters were obtained through four-parameter nonlinear fitting. […]

T1 sequence (Q08722 19-323): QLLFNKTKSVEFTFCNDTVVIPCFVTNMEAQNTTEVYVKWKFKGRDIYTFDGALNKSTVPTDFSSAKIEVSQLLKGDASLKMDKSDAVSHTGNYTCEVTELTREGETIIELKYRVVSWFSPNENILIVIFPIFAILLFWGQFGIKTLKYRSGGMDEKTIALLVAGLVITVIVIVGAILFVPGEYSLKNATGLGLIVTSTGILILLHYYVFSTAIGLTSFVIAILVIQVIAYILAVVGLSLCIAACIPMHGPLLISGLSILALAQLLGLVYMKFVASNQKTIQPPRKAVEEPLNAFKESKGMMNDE

| Substance | binding activity to CD47 (CHOK1-hCD47 cells) [1] | Average DAR ([2]; Experiment 1, TCEP 1.5 equivalents) | Average DAR ([2]; Experiment 2, TCEP 2.0 equivalents) | Average DAR ([2]; Experiment 3, TCEP 3.0 equivalents) | cell killing of BCMA-positive cells NCI-H929 (NCI-H929 cells [3]) | cytotoxic killing against HCC1954 cells (HCC1954 cells) | cytotoxic killing against HEK293T-hBCMA cells (HEK293T-hBCMA cells) | cytotoxic killing against NCI-H929 cells (NCI-H929 cells [4]) |
| --- | --- | --- | --- | --- | --- | --- | --- | --- |
| PR006345: SIRPa-Fc fusion protein: ALX148 SIRPa variant fused with human IgG1 hinge and Fc, SEQ ID NO: 149 | strong specific binding activity | 1.89 | 2.23 | 2.91 | – | – | – | – |
| mc-vc-PAB-MMAE [reference compound] | – | – | – | – | cannot effectively kill | only has a killing effect at the highest concentration (60 nM) | cannot produce effective killing | cannot produce effective killing |
